Non-standard residues stand in square brackets, D forms with d. No end group written: not given here.
T1: FPRL1 (Homo sapiens, UniProt P25090)
T1 sequence (P25090 1-351): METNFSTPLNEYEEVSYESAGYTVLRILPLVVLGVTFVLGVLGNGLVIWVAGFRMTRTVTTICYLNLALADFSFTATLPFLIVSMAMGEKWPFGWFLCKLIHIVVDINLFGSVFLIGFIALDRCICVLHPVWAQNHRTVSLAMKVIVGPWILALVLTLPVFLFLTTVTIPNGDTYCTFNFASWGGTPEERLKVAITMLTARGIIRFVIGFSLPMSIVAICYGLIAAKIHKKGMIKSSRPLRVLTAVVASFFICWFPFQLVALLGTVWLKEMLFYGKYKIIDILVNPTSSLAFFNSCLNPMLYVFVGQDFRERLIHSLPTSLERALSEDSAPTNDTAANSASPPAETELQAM

B1: mC5a: chemoattractant mC5a (SEQ ID NO: 62) (protein, listed as Homo sapiens)
chain: NLHLLRQKIEEQAAKYKHSVPKKCCYDGARVNFYETCEERVARVTIGPLCIRAFNECCTIANKIRKESPHKPVQLGR

Experiments:
[1] = test system: Female BALB/C mice; assay type: in vivo; details: for levels of antigen specific IgA antibodies: mucosal samples, day 21, intranasal rPA plus adjuvant; for levels of antigen specific IgG antibodies: serum, day 21, intranasal rPA 10 μg plus adjuvant, vs rPA alone
[2] = target: T1, FPRL1; test: FPRL1 activity of SHAAGtide and truncated and other variants; details: in words: high, moderate, low
Description: In addition to the agonists and antagonists shown in TABLE 4, SHAAGtide polypeptides were also shown to modulate FPRL1 activity. The term “SHAAGtide” includes SHAAGtide polypeptides (shown in TABLE 5), including isolated or purified SHAAGtide polypeptides, proteins or biologically active fragments separated from or recovered from a component of its natural environment; and polynucleotides shown in TABLE 6, truncated variants and other variants thereof, including naturally occurring allelic variants, derivatives and analogs. SHAAGtide polypeptides are derived from the alternatively spliced variant of CKβ8, namely CKβ8-1. CKβ8-1 is a 116 amino acid long polypeptide that includes the sequence of SHAAGtide polypeptides. […]

Molecule | levels of antigen specific IgA antibodies [1] | levels of antigen specific IgG antibodies [1] | FPRL1 Activity [2]
5′-TCCATGACGTTCCTGATGCT-3′ (chemistry not given here) [CpG, CpG oligonucleotide, ligand for TLR9, reference compound] | did not induce significant levels | did not induce significant levels | 
IGPQMTLSHAAG [CCXP4] |  |  | Low
LWRRKIGPQMTLSH [CCXP11] |  |  | Moderate
MLWRRKIGPQM [CCXP8] |  |  | Moderate
MLWRRKIGPQMT [CCXP5] |  |  | Moderate
MLWRRKIGPQMTLSH [CCXP3] |  |  | High
MLWRRKIGPQMTLSHAAG [CCXP1] | did not induce significant levels | did not induce significant levels | sequence high
MLWRRKIGPQMTLSHAAY [CCXP6] |  |  | high
RRKIGPQMTLSHAAG [CCXP2] |  |  | Low
Trp-Lys-Tyr-Met-Val-D-Met-CONH2 (WKYMV[dM]-NH2) [W-tide, WKYMV-(d-Met)-CONH2, synthetic hexapeptide ligand of FPRL1, reference compound] | did not induce significant levels | did not induce significant levels | 
WRRKIG [CCXP10] |  |  | Low activity
WRRKIGPQM [CCXP9] |  |  | Low activity
WRRKIGPQMTLSHAAG [CCXP7] |  |  | Low activity
mJE: chemokine mJE (SEQ ID NO: 60), used as chemoattractant adjuvant | did not induce significant levels | did not induce significant levels | 
B1 | did not induce significant levels | did not induce significant levels | 

— patent US20070087986A1, “Compositions and methods for enhancing immunity by chemoattractant adjuvants” (priority 2004, published 2007)
